Laboratory results published in US20240383990A1 (DIAGONAL THERAPEUTICS, published 2024).
Positions count from the first letter of the chain named.

T1: IL-18 receptor (IL-18Rα and IL-18Rβ) on HEK-Blue IL-18 cells (UniProt Q13478 19-541; O95256 20-599, limits assumed)
T1 sequence (looked up) 1: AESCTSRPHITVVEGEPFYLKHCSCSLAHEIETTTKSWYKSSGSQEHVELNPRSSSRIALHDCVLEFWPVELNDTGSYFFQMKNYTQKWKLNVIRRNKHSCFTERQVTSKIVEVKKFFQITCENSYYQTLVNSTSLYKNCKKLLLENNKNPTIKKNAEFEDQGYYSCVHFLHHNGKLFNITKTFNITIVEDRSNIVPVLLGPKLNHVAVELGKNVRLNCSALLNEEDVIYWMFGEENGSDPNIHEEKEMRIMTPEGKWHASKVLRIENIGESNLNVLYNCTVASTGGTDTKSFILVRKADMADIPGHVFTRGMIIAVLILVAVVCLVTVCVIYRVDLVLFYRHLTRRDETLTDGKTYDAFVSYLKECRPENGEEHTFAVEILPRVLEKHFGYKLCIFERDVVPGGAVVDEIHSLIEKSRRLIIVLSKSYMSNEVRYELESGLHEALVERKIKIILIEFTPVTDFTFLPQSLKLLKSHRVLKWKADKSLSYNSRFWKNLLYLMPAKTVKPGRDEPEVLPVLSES
T1 sequence (looked up) 2: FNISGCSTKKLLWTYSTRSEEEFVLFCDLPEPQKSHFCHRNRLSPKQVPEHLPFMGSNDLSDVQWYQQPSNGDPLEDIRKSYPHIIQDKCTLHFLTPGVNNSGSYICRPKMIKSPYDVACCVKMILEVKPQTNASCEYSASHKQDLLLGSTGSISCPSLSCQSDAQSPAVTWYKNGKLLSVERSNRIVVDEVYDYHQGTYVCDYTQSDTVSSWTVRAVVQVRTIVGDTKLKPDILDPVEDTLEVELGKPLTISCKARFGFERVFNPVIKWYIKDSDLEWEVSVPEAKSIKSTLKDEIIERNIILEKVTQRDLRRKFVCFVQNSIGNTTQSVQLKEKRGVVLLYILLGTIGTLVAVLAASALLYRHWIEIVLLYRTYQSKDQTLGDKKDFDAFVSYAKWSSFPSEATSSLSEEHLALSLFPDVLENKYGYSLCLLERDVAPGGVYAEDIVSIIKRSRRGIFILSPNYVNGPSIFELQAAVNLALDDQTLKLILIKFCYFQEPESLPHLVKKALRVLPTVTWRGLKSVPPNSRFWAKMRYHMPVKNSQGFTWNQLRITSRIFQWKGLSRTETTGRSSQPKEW

B1: DGL216 (bispecific antibody)
chain 1: QVQLVESGGGLVQAGGSLRLSCAASGRTFSKHAMGWFRQAPGKEREFVAAIDWSGGSTYYADSVKGRFTISRDNAKNTVYLQMDSLKPEDTAVYYCAADSYTDYAQLWLPELESEYDYWGQGTLVTVSSDKTHTCPPCPAPEAAGAPSVFLFPPKPKDTLMISRTPEVTCVVVDVSHEDPEVKFNWYVDGVEVHNAKTKPREEQYNSTYRVVSVLTVLHQDWLNGKEYKCKVSNKALPAPIEKTISKAKGQPREPQVCTLPPSRDELTKNQVSLSCAVKGFYPSDIAVEWESNGQPENNYKTTPPVLDSDGSFFLVSKLTVDKSRWQQGNVFSCSVMHEALHNHYTQKSLSLSPGWSHPQFEK
chain 2: QLQLVESGGGLVQAGGSLRLSCAASRSITFSHNVMGWYRQAPGKQRELVASIGSGGSTNYVDSVKGRATISRDNAKKTVYLQMNSLKPEDTAVYYCGVVVGVYRGSLGQGTLVTVSSGGGGSGGGGSGGGGSGGGGSCPPCPAPEAAGAPSVFLFPPKPKDTLMISRTPEVTCVVVDVSHEDPEVKFNWYVDGVEVHNAKTKPREEQYNSTYRVVSVLTVLHQDWLNGKEYKCKVSNKALPAPIEKTISKAKGQPREPQVYTLPPCRDELTKNQVSLWCLVKGFYPSDIAVEWESNGQPENNYKTTPPVLDSDGSFFLYSKLTVDKSRWQQGNVFSCSVMHEALHNHYTQKSLSLSPGEPEA
B2: DGL217 (bispecific antibody)
chain 1: B1 chain 1
chain 2: QLQLVESGGGLVQAGGSLRLSCAASRSITFSHNVMGWYRQAPGKQRELVASIGSGGSTNYVDSVKGRATISRDNAKKTVYLQMNSLKPEDTAVYYCGVVVGVYRGSLGQGTLVTVSSEKSYGPPCPPCPAPEAAGAPSVFLFPPKPKDTLMISRTPEVTCVVVDVSHEDPEVKFNWYVDGVEVHNAKTKPREEQYNSTYRVVSVLTVLHQDWLNGKEYKCKVSNKALPAPIEKTISKAKGQPREPQVYTLPPCRDELTKNQVSLWCLVKGFYPSDIAVEWESNGQPENNYKTTPPVLDSDGSFFLYSKLTVDKSRWQQGNVFSCSVMHEALHNHYTQKSLSLSPGEPEA
B3: DGL221 (bispecific antibody)
chain 1: QVQLVESGGGLVQAGGSLRLSCAASGRTFSKHAMGWFRQAPGKEREFVAAIDWSGGSTYYADSVKGRFTISRDNAKNTVYLQMDSLKPEDTAVYYCAADSYTDYAQLWLPELESEYDYWGQGTLVTVSSGGGGSGGGGSGGGGSGGGGSCPPCPAPEAAGAPSVFLFPPKPKDTLMISRTPEVTCVVVDVSHEDPEVKFNWYVDGVEVHNAKTKPREEQYNSTYRVVSVLTVLHQDWLNGKEYKCKVSNKALPAPIEKTISKAKGQPREPQVCTLPPSRDELTKNQVSLSCAVKGFYPSDIAVEWESNGQPENNYKTTPPVLDSDGSFFLVSKLTVDKSRWQQGNVFSCSVMHEALHNHYTQKSLSLSPGWSHPQFEK
chain 2: not shown
B4: DGL220 (bispecific antibody)
chain 1: QVQLVESGGGLVQAGGSLRLSCAASGRTFSKHAMGWFRQAPGKEREFVAAIDWSGGSTYYADSVKGRFTISRDNAKNTVYLQMDSLKPEDTAVYYCAADSYTDYAQLWLPELESEYDYWGQGTLVTVSSPLAPCPPCPAPEAAGAPSVFLFPPKPKDTLMISRTPEVTCVVVDVSHEDPEVKFNWYVDGVEVHNAKTKPREEQYNSTYRVVSVLTVLHQDWLNGKEYKCKVSNKALPAPIEKTISKAKGQPREPQVCTLPPSRDELTKNQVSLSCAVKGFYPSDIAVEWESNGQPENNYKTTPPVLDSDGSFFLVSKLTVDKSRWQQGNVFSCSVMHEALHNHYTQKSLSLSPGWSHPQFEK
chain 2: not shown
B5: DGL218 (bispecific antibody)
chain 1: QVQLVESGGGLVQAGGSLRLSCAASGRTFSKHAMGWFRQAPGKEREFVAAIDWSGGSTYYADSVKGRFTISRDNAKNTVYLQMDSLKPEDTAVYYCAADSYTDYAQLWLPELESEYDYWGQGTLVTVSSCPPCPAPEAAGAPSVFLFPPKPKDTLMISRTPEVTCVVVDVSHEDPEVKFNWYVDGVEVHNAKTKPREEQYNSTYRVVSVLTVLHQDWLNGKEYKCKVSNKALPAPIEKTISKAKGQPREPQVCTLPPSRDELTKNQVSLSCAVKGFYPSDIAVEWESNGQPENNYKTTPPVLDSDGSFFLVSKLTVDKSRWQQGNVFSCSVMHEALHNHYTQKSLSLSPGWSHPQFEK
chain 2: not shown
B6: DGL219 (bispecific antibody)
chain 1: QVQLVESGGGLVQAGGSLRLSCAASGRTFSKHAMGWFRQAPGKEREFVAAIDWSGGSTYYADSVKGRFTISRDNAKNTVYLQMDSLKPEDTAVYYCAADSYTDYAQLWLPELESEYDYWGQGTLVTVSSPLAPDKTHTCPPCPAPEAAGAPSVFLFPPKPKDTLMISRTPEVTCVVVDVSHEDPEVKFNWYVDGVEVHNAKTKPREEQYNSTYRVVSVLTVLHQDWLNGKEYKCKVSNKALPAPIEKTISKAKGQPREPQVCTLPPSRDELTKNQVSLSCAVKGFYPSDIAVEWESNGQPENNYKTTPPVLDSDGSFFLVSKLTVDKSRWQQGNVFSCSVMHEALHNHYTQKSLSLSPGWSHPQFEK
chain 2: not shown
B7: DGL222 (bispecific antibody)
chain 1: QVQLVESGGGLVQAGGSLRLSCAASGRTFSKHAMGWFRQAPGKEREFVAAIDWSGGSTYYADSVKGRFTISRDNAKNTVYLQMDSLKPEDTAVYYCAADSYTDYAQLWLPELESEYDYWGQGTLVTVSSEKSYGPPCPPCPAPEAAGAPSVFLFPPKPKDTLMISRTPEVTCVVVDVSHEDPEVKFNWYVDGVEVHNAKTKPREEQYNSTYRVVSVLTVLHQDWLNGKEYKCKVSNKALPAPIEKTISKAKGQPREPQVCTLPPSRDELTKNQVSLSCAVKGFYPSDIAVEWESNGQPENNYKTTPPVLDSDGSFFLVSKLTVDKSRWQQGNVFSCSVMHEALHNHYTQKSLSLSPGWSHPQFEK
chain 2: not shown
B8: DGL945 (bispecific antibody, human IgG1, lambda)
heavy: EVQLLESGGGLVQPGGSLRLSCAASGFTFSDYYMTWIRQAPGKGLEWVSSISGGSTYYADSRKGRFTISRDNSENTLYLQMNSLRAEDTAVYYCARDFGVAGWFGQYGMDVWGQGTLVTVSSPLAPEVQLLESGGGLVQPGGSLRLSCAASGFTFSSYAMSWVRQAPGKGLEWVANINQDGSEKNYVDSMRGRFTISRDNSKNTLYLQMNSLRAEDTAVYYCAREFDYWGQGTLVTVSSASTKGPSVFPLAPSSKSTSGGTAALGCLVKDYFPEPVTVSWNSGALTSGVHTFPAVLQSSGLYSLSSVVTVPSSSLGTQTYICNVNHKPSNTKVDKKVEPKSCDKTHTCPPCPAPEAAGAPSVFLFPPKPKDTLYITREPEVTCVVVDVSHEDPEVKFNWYVDGVEVHNAKTKPREEQYNSTYRVVSVLTVLHQDWLNGKEYKCKVSNKALPAPIEKTISKAKGQPREPQVYTLPPSRDELTKNQVSLTCLVKGFYPSDIAVEWESNGQPENNYKTTPPVLDSDGSFFLYSKLTVDKSRWQQGNVFSCSVMHEALHNHYTQKSLSLSPG
light: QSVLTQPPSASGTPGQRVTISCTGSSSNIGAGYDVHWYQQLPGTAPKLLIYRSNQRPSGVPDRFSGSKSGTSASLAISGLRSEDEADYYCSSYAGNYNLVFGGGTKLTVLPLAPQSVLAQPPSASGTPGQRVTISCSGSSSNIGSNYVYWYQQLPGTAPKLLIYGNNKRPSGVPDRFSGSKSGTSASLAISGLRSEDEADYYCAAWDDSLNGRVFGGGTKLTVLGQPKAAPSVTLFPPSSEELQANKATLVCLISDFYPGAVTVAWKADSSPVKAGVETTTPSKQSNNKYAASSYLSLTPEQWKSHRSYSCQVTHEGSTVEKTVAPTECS
B9: DGL949 (bispecific antibody, human IgG1, lambda)
heavy: B8 heavy with T35N, R62V, Q106Y, A159W, N178K, Y228F
light: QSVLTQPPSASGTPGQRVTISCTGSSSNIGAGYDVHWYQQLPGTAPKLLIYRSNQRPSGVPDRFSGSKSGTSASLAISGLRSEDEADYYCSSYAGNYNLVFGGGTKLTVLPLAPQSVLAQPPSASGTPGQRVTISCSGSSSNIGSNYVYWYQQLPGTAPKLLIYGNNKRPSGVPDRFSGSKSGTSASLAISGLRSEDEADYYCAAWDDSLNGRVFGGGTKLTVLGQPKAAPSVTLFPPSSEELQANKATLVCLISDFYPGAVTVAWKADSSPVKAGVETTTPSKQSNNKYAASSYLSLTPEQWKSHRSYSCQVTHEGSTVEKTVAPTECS
B10: DGL947 (bispecific antibody, human IgG1, lambda)
heavy: B8 heavy with T35N, R62V, Y107F, A159W, N185Y, F226Y
light: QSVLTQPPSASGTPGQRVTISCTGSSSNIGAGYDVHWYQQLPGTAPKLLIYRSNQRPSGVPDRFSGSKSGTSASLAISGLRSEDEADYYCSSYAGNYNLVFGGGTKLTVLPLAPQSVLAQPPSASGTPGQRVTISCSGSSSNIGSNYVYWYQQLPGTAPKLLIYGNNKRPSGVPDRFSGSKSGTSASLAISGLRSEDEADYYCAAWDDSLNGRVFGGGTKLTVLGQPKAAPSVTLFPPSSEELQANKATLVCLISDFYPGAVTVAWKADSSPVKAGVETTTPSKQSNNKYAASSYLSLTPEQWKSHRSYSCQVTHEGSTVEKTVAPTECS

Molecular target: T1, IL-18 receptor (IL-18Rα and IL-18Rβ) on …
Assay: cell-based or functional assay

Row | Binder | HEK-Blue assay, % human IL18 [% human IL18]
1 | B1 | 22
2 | B2 | 45

Molecular target: T1, IL-18 receptor (IL-18Rα and IL-18Rβ) on …
Assay: cell-based or functional assay
Remark: another data set of the same source

Row | Binder | HEK-Blue assay, % human IL18 [% human IL18]
3 | B3 | 19
4 | B4 | 53
5 | B5 | 44
6 | B6 | 35
7 | B7 | 44

Molecular target: ALK1 / BMPRII receptor pair (BMPR Type I receptor ALK1 and BMPR Type II receptor BMPRII) on cells (UniProt P37023 22-503; Q13873 27-1038, limits assumed)
Assay: cell-based or functional assay

Sequence of ALK1 / BMPRII receptor pair (BMPR Type I receptor ALK1 and BMPR Type II receptor BMPRII) on cells (P37023 22-503 limits assumed, chain 1 of 2): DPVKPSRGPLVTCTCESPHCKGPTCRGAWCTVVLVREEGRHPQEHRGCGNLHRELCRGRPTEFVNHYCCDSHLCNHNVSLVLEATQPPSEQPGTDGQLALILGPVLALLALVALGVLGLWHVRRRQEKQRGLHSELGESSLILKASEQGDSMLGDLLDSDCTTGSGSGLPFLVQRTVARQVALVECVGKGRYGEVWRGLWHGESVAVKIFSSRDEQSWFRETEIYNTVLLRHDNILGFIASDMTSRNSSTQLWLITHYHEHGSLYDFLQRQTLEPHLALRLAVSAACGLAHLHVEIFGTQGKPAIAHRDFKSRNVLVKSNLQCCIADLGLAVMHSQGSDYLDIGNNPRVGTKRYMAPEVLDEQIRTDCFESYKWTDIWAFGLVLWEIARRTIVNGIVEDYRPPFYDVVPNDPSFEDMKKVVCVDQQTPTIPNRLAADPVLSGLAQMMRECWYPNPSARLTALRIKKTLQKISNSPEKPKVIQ
Sequence of ALK1 / BMPRII receptor pair (BMPR Type I receptor ALK1 and BMPR Type II receptor BMPRII) on cells (Q13873 27-1038 limits assumed, chain 2 of 2): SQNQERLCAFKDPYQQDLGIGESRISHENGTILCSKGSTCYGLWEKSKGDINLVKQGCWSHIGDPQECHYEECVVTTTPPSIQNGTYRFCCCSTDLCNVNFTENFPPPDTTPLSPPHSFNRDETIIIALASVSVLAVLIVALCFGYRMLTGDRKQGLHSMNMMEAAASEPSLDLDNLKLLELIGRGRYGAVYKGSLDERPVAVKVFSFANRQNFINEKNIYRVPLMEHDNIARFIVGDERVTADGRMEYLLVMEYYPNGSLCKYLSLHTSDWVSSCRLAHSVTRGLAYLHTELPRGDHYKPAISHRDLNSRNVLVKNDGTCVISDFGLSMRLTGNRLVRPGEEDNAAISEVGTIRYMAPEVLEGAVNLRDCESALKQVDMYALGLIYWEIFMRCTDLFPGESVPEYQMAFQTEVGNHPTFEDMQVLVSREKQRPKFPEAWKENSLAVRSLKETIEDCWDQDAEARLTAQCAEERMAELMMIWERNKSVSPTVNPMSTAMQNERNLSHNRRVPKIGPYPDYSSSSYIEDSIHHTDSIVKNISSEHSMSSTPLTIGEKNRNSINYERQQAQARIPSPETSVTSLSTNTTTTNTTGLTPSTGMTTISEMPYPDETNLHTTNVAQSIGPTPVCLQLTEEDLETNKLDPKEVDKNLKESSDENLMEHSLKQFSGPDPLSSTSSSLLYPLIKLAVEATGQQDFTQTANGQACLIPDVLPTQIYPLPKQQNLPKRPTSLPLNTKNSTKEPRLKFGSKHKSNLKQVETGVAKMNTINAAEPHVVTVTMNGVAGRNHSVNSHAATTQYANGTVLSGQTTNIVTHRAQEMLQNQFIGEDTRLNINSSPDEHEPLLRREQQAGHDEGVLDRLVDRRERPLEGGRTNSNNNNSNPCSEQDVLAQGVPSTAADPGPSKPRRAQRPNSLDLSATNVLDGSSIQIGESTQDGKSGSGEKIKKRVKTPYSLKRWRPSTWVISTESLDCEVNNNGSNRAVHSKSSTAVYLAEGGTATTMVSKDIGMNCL

Row | Binder | Agonist activity in DiscoverX assay, % Emax BMP9 [% Emax BMP9]
8 | B8 | 78
9 | B9 | 42
10 | B10 | 47
